Read-outs that look alike come from different tables or passages of the source. Blank lines part the entries; values can stand above or below the binder they belong to.
Legend:
[1] = biological target: T1, RNA polymerase II (12-subunit);Rad26 (Saccharomyces cerevisiae;Saccharomyces …, UniProt P04050;P08518;P16370;P20433;P20434;P20435;P34087;P20436;P27999;P22139;P38902;P40 …, |); experiment: EMSA
[2] = biological target: T1, RNA polymerase II (12-subunit);Rad26; experiment: EMSA; remark: listed apart in the source
[3] = biological target: T1, RNA polymerase II (12-subunit);Rad26; experiment: EMSA; remark: listed apart in the source
[4] = biological target: T1, RNA polymerase II (12-subunit);Rad26; experiment: EMSA; remark: listed apart in the source
[5] = biological target: T1, RNA polymerase II (12-subunit);Rad26; experiment: EMSA; remark: listed apart in the source
[6] = biological target: T1, RNA polymerase II (12-subunit);Rad26; experiment: EMSA; remark: listed apart in the source
[7] = biological target: Rpb2 subunit of S. cerevisiae RNA polymerase II (S. cerevisiae, UniProt P08518 1-1224); experiment: cryo-EM structure
Rpb2 subunit of S. cerevisiae RNA polymerase II, sequence (P08518 whole entry): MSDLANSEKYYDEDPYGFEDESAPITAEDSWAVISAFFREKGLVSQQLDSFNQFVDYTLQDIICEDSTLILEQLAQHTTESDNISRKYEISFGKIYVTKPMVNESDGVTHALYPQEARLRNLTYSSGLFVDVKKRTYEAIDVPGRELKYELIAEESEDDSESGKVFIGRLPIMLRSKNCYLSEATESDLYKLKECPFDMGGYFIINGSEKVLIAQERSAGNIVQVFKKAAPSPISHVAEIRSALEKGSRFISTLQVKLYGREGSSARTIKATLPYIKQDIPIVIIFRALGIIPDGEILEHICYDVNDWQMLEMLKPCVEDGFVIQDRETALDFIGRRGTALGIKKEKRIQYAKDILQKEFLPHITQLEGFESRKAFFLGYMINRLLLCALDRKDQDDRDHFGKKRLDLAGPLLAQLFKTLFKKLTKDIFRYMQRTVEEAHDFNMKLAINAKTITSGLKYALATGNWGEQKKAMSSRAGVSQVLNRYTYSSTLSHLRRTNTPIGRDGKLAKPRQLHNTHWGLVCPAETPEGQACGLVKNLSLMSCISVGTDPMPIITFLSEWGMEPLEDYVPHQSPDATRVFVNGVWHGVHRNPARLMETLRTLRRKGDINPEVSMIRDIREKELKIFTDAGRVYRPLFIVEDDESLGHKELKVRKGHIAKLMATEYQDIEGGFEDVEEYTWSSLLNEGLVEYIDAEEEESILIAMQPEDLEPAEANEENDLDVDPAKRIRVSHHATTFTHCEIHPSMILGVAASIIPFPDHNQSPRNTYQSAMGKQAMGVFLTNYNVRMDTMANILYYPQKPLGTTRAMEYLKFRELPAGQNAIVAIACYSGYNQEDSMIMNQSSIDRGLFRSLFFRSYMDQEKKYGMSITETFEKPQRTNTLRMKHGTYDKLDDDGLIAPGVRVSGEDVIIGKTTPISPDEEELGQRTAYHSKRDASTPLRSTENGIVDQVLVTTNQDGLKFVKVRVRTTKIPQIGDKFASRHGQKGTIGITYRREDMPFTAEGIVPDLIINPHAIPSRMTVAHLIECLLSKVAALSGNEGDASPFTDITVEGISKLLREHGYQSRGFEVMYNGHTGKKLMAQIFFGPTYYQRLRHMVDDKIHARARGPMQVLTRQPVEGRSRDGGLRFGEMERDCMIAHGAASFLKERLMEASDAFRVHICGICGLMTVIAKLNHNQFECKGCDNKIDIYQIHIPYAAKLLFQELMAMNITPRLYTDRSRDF

B1: non-damaged TT scaffold (mixed)
DNA 1: CGAGCAGATCTCATAGCCCATTCCTACTAAGGAGAAGGAGCAGAGCG
DNA 2: CGCTCTGCTCCTTCTCCTTTCCTCTCGATGGCTATGAGATCTGCTCG
RNA: AUCGAGAGGA
- binding result [1]: binds

B2: AT-rich upstream fork scaffold (mixed)
DNA 1: CGAGCAGATCTCATATTTCATTCCTACTTGGGAGAAGGAGCAGAGCG
DNA 2: CGCTCTGCTCCTTCTCCCATCCTCTCGATAAATATGAGATCTGCTCG
RNA: AUCGAGAGGA
- binding result [2]: binds

B3: CPD lesion scaffold (mixed)
DNA 1: CGAGCAGATCTCATAGCCCATTCCTACTAAGGAGAAGGAGCAGAGCG
DNA 2: CGCTCTGCTCCTTCTCCTTTCCTCTCGATGGCTATGAGATCTGCTCG
RNA: AUCGAGAGGA
modifications: CPD at TT of TS (nt 18-19)
- binding result [3]: binds

B4: 3+10+3 bubble scaffold (mixed)
DNA 1: CGAGCAGATCTCATATTTCATTCCTACTCATGAGAAGGAGCAGAGCG
DNA 2: CGCTCTGCTCCTTCTCCCATCCTCTCGATGGCTATGAGATCTGCTCG
RNA: AUCGAGAGGA
- binding result [4]: binds

B5: 10+3 bubble scaffold (mixed)
DNA 1: CGAGCAGATCTCATAGCCCATTCCTACTCATGAGAAGGAGCAGAGCG
DNA 2: CGCTCTGCTCCTTCTCCCATCCTCTCGATGGCTATGAGATCTGCTCG
RNA: AUCGAGAGGA
- binding result [5]: binds

B6: 3+10 bubble scaffold (mixed)
DNA 1: CGAGCAGATCTCATATTTCATTCCTACTTGGGAGAAGGAGCAGAGCG
DNA 2: CGCTCTGCTCCTTCTCCCATCCTCTCGATGGCTATGAGATCTGCTCG
RNA: AUCGAGAGGA
- binding result [6]: binds

- binding result [7]: binds
B7: Saccharomyces cerevisiae Rad26 (natural protein, S. cerevisiae, UniProt P40352 1-1085, looked up)
chain: MEDKEQQDNAKLENNESLKDLGVNVLSQSSLEEKIANDVTNFSNLQSLQQEETRLERSKTALQRYVNKKNHLTRKLNNTTRISVKQNLRDQIKNLQSDDIERVLKDIDDIQSRIKELKEQVDQGAENKGSKEGLQRPGETEKEFLIRTGKITAFGHKAGFSLDTANREYAKNDEQKDEDFEMATEQMVENLTDEDDNLSDQDYQMSGKESEDDEEEENDDKILKELEDLRFRGQPGEAKDDGDELYYQERLKKWVKQRSCGSQRSSDLPEWRRPHPNIPDAKLNSQFKIPGEIYSLLFNYQKTCVQWLYELYQQNCGGIIGDEMGLGKTIQVIAFIAALHHSGLLTGPVLIVCPATVMKQWCNEFQHWWPPLRTVILHSMGSGMASDQKFKMDENDLENLIMNSKPSDFSYEDWKNSTRTKKALESSYHLDKLIDKVVTDGHILITTYVGLRIHSDKLLKVKWQYAVLDEGHKIRNPDSEISLTCKKLKTHNRIILSGTPIQNNLTELWSLFDFIFPGKLGTLPVFQQQFVIPINIGGYANATNIQVQTGYKCAVALRDLISPYLLRRVKADVAKDLPQKKEMVLFCKLTKYQRSKYLEFLHSSDLNQIQNGKRNVLFGIDILRKICNHPDLLDRDTKRHNPDYGDPKRSGKMQVVKQLLLLWHKQGYKALLFTQSRQMLDILEEFISTKDPDLSHLNYLRMDGTTNIKGRQSLVDRFNNESFDVFLLTTRVGGLGVNLTGANRIIIFDPDWNPSTDMQARERAWRIGQKREVSIYRLMVGGSIEEKIYHRQIFKQFLTNRILTDPKQKRFFKIHELHDLFSLGGENGYSTEELNEEVQKHTENLKNSKSEESDDFEQLVNLSGVSKLESFYNGKEKKENSKTEDDRLIEGLLGGESNLETVMSHDSVVNSHAGSSSSNIITKEASRVAIEAVNALRKSRKKITKQYEIGTPTWTGRFGKAGKIRKRDPLKNKLTGSAAILGNITKSQKEASKEARQENYDDGITFARSKEINSNTKTLENIRAYLQKQNNFFSSSVSILNSIGVSLSDKEDVIKVRALLKTIAQFDKERKGWVLDEEFRNNNAS

Source: PMC5907806 (Nature, 2017)
